Data taken from article PMC7108666.

What was measured:
Put3 = target: T1, Put3 (UniProt P25502 1-979); experiment: EMSA
T1 sequence: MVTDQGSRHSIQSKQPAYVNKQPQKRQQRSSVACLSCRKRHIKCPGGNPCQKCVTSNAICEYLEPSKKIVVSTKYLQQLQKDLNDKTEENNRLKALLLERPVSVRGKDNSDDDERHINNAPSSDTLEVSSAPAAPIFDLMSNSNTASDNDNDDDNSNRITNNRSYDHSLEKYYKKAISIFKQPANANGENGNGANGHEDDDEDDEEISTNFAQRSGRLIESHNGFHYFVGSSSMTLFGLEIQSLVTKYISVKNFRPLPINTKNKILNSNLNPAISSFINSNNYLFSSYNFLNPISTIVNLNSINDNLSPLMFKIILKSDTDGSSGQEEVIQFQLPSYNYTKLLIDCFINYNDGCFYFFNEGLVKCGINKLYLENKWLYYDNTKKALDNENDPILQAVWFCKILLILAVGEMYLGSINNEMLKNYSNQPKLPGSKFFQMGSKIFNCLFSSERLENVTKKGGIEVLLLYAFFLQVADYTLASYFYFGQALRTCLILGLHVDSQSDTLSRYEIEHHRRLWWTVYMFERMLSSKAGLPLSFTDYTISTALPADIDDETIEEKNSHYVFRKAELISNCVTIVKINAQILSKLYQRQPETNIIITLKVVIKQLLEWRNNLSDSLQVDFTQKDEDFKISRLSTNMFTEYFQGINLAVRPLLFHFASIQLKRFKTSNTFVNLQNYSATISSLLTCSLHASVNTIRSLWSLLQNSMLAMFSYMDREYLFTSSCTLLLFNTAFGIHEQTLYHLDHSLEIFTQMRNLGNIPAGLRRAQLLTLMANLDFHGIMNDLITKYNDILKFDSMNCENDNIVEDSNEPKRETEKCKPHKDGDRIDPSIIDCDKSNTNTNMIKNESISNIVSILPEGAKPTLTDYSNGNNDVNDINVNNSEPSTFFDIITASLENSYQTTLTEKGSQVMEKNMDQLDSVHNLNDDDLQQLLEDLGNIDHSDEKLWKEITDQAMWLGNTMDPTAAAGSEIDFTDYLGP

Put3;Myo3 = Put3;Myo3 (Saccharomyces cerevisiae?;Saccharomyces …, UniProt P25502;P36006 1-979;1-1272, |); experiment: EMSA

B1: UAS oligonucleotide (dsDNA)
DNA 1: TCTCGGGAAGCCAACTCCGAAGC
DNA 2: GCTTCGGAGTTGGCTTCCCGAGA
B1: binds (Put3).

B2: GRSI oligonucleotide (dsDNA)
DNA 1: GTGTTCCGGGGTTGGATGCGGAA
DNA 2: TTCCGCATCCAACCCCGGAACAC
B2: binds (Put3;Myo3); binds (Put3).
